This note sets out measurements from patent US20110059051, “Molecular Control of Brown Fat Differentiation and Engergy Expenditure” (Dana-Farber Cancer Institute, Inc., published 2011).

The target of this series is PRDM16 R998Q (Mus musculus, UniProt A2A935 SEQ:1-1275, R998Q). The series can be described thus: EMSA; R998Q completely loses DNA binding; same buffer as wild type. To be noted: label: 32P end label. On the technique in general: In EMSA bound probe runs differently from free probe, usually more slowly.
Sequence of PRDM16 R998Q (A2A935 other isoform, or with tags, fused parts or gaps R998Q | R998Q R998Q): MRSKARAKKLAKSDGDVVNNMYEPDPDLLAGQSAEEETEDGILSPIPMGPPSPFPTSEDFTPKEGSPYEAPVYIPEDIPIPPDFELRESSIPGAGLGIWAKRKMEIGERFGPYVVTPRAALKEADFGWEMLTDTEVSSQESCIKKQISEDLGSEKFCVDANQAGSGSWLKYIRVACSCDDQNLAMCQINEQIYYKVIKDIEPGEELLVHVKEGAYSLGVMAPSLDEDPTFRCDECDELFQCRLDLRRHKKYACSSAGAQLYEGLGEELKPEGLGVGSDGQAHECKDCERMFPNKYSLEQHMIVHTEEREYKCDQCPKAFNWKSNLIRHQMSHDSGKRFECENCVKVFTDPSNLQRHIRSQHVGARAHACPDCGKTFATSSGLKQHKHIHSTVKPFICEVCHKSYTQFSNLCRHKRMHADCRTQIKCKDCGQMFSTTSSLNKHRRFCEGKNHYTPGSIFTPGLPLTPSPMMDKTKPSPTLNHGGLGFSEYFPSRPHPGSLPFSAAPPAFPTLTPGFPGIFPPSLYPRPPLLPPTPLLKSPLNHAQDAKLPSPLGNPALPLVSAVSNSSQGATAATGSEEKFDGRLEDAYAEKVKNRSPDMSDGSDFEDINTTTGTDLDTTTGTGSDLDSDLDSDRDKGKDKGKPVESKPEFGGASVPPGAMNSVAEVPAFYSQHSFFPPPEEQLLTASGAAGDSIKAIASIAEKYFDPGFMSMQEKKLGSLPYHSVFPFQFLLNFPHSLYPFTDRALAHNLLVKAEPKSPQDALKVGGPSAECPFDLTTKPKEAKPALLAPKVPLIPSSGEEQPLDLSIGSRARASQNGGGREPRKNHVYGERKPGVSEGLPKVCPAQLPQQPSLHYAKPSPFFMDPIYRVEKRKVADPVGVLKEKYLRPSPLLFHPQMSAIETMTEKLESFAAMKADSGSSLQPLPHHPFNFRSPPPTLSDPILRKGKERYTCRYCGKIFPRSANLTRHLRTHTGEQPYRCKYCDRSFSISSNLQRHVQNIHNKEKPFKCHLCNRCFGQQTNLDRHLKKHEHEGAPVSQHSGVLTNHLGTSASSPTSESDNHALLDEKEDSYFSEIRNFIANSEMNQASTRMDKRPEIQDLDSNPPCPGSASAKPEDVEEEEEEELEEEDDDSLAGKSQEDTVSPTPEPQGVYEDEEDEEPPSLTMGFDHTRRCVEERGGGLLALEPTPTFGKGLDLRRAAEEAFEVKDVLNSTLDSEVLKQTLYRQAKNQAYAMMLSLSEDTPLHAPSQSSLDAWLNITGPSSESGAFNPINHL

B1: PRDM16 consensus binding site EMSA probe (dsDNA)
DNA 1: GATCCGACAAGATAAGATAAGGATCTATAAGAAGATGAGGTATG
DNA 2: CATACCTCATCTTCTTATAGATCCTTATCTTATCTTGTCGGATC
In the case of B1, the binding result is “no binding”.
